Laboratory results reported in the supplement of paper PMC7125110.
± gives the standard error. This sample holds only a part of the variants without activity.

B1: glmS ribozyme (parent)
chain: AUAAAAGCGCCAGAACUACAGAAAUGUAGUUGACGAGGAGGAGGUUUAUCGAAUUUUCGGCGGAUGCCUCCAAA

What was measured:
Conditions in all cases: with glucosamine-6-phosphate
glucosamine-6-phosphate [1] = variants of: B1; experiment: self-cleavage kobs at 640 uM GlcN6P; higher = faster cleavage; RNA array
Summary of the method: (§1)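 Barcoded ribozyme variants on sequenced MiSeq chips were transcribed in situ by E. coli RNA polymerase and followed at 37 °C through a hybridised Cy3 probe. Glucosamine-6-phosphate at 40 μM to 10 mM in HEPES/KCl/Mg(OAc)2 buffer was flowed in, and tiles were imaged over ~14 h. Signals were normalised to baseline and to non-cleaving reference variants, and per-tile medians were fit to one- or two-exponential decays to give kobs. Weighted Michaelis–Menten fits across concentrations gave kcat and KM.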

glucosamine-6-phosphate [2] = variants of: B1; experiment: self-cleavage kobs at 2500 uM GlcN6P; higher = faster cleavage; RNA array
Summary of the method: as §1

glucosamine-6-phosphate [3] = variants of: B1; experiment: self-cleavage kobs at 10000 uM GlcN6P; higher = faster cleavage; RNA array
Summary of the method: as §1

Variant	self-cleavage kobs at 640 uM GlcN6P (glucosamine-6-phosphate [1]) [s⁻¹]	self-cleavage kobs at 2500 uM GlcN6P (glucosamine-6-phosphate [2]) [s⁻¹]	self-cleavage kobs at 10000 uM GlcN6P (glucosamine-6-phosphate [3]) [s⁻¹]
C8G C10G A12U A14G G43A C58U	< 1e-05	–	–
A14G G35U G37C U47C	< 1e-05	–	–
A15U A36C U56G U69A	7.26e-05 ± 3.4e-05	–	–
C67A U69A	0.000234 ± 4.1e-05	0.000247 ± 5.8e-05	–
C10G C11A C16A C58G C71G	0.00176 ± 0.00062	0.000241 ± 0.0001	–
C16G G51A A64U	< 1e-05	–	–
G32A A53C C58U C71A	< 1e-05	–	–
G29C A53G G63U	< 1e-05	–	–
G7A A12G U31A C68G	0.000116 ± 3.5e-05	–	–
G13U A64G U65G	8.37e-05 ± 3e-05	5.07e-05 ± 1.7e-05	–
A6C U45C G51C U65G C70G	< 1e-05	< 1e-05	–
A14U C61A G66A	< 1e-05	–	–
G29U U45G U65C	< 1e-05	< 1e-05	–
G51C C67G C70U	< 1e-05	< 1e-05	–
G9A G62U G66U	< 1e-05	< 1e-05	–
A12U C58U C61G G62C A64G U65A G66U C67G U69C C70U	7.34e-05 ± 2.4e-05	7.58e-05 ± 1.9e-05	–
C34G U45A U57C	< 1e-05	–	–
G29C C70G	8e-05 ± 1.4e-05	2.33e-05 ± 8.6e-06	4e-05 ± 1.4e-05

Variant	self-cleavage kobs at 640 uM GlcN6P (glucosamine-6-phosphate [1]) [s⁻¹]	self-cleavage kobs at 2500 uM GlcN6P (glucosamine-6-phosphate [2]) [s⁻¹]	self-cleavage kobs at 10000 uM GlcN6P (glucosamine-6-phosphate [3]) [s⁻¹]
A12U C19U U69A	0.000392 ± 0.0001	0.000303 ± 6e-05	–
G43A U55G C61U G62C	< 1e-05	–	–
G13U U31G A48G A52U	< 1e-05	–	–
C11U C16A U30A G32C U69G	0.000926 ± 0.00019	–	–
C8G G41U A48U C70U	< 1e-05	–	–
G9U U45G A52G	< 1e-05	–	–
U2A	0.0236 ± 0.0098	–	–
A42G G43A U46G G66U	< 1e-05	< 1e-05	–
A6G G7A C11G G32A U45G	< 1e-05	–	–
C8G G38U C68A	< 1e-05	–	–
C10U A12C G60U	< 1e-05	–	–
U30C C67A C70G	6.32e-05 ± 1.4e-05	–	–
C10G A15C	< 1e-05	–	< 1e-05
A53U G62U	< 1e-05	< 1e-05	< 1e-05
C8U G9U A15C G44U	< 1e-05	< 1e-05	–
G9U G32A G43C	< 1e-05	–	–
G9C A15U G26U G63C	< 1e-05	–	–
A24C U47G C67A	0.000315 ± 7.3e-05	0.000647 ± 0.00024	–
